Molecular target: T cell receptor of Ova-specific CD8+ T cells (OT-I), on OT-I cells (mouse)
Assay: cell-based or functional assay

B1: Kb(Ova)/ANXA5 (peptide-MHC)
chain: SIINFEKLGGGASGGGGSGGGGSIQKTPQIQVYSRHPPENGKPNILNCYVTQFHPPHIEIQMLKNGKKIPKVEMSDMSFSKDWSFYILAHTEFTPTETDTYACRVKHASMAEPKTVYWDRDMGGGGSGGGGSGGGGSGGGGSGPHSLRYFVTAVSRPGLGEPRYMEVGYVDDTEFVRFDSDAENPRYEPQAPWMEQEGPEYWERETQKAKGNEQSFRVDLRTLLGYYNQSKGGSHTIQVISGCEVGSDGRLLRGYQQYAYDGCDYIALNEDLKTWTAADMAALITKHKWEQAGEAERLRAYLEGTCVEWLRRYLKNGNATLLRTDSPKAHVTHHSRPEDKVTLRCWALGFYPADITLTWQLNGEELIQDMELVETRPAGDGTFQKWASVVVPLGKEQYYTCHVYHQGLPEPLTLRWEPPPSTRSMAQVLRGTVTDFPGFDERADAETLRKAMKGLGTDEESILTLLTSRSNAQRQEISAAFKTLFGRDLLDDLKSELTGKFEKLIVALMKPSRLYDAYELKHALKGAGTNEKVLTEIIASRTPEELRAIKQVYEEEYGSSLEDDVVGDTSGYYQRMLVVLLQANRDPDAGIDEAQVEQDAQALFQAGELKWGTDEEKFITIFGTRSVSHLRKVFDKYMTISGFQIEETIDRETSGNLEQLLLAVVKSIRSIPAYLAETLYYAMKGAGTDDHTLIRVMVSRSEIDLFNIRKEFRKNFATSLYSMIKGDTSGDYKKALLLLCGEDD
- IFN-γ expression of OT-I cells (flow cytometry); potency relative to dimeric Kb(Ova)/Fc: > 100 fold
- IFN-γ expression of resting or naïve OT-I cells after 12 hours (flow cytometry); potency by minimal dose of antigen required to detect activation, relative to monomeric Kb(Ova): > 1000 fold

— patent US11987606 (Johns Hopkins, dated 2024)
